These results are taken from publication PMC10914751.

The target of the test is Plk4 CPB (in vitro binding, Supplementary Fig. 3i).
Sequence of Plk4 CPB (in vitro binding, Supplementary Fig. 3i) (O00444 whole entry): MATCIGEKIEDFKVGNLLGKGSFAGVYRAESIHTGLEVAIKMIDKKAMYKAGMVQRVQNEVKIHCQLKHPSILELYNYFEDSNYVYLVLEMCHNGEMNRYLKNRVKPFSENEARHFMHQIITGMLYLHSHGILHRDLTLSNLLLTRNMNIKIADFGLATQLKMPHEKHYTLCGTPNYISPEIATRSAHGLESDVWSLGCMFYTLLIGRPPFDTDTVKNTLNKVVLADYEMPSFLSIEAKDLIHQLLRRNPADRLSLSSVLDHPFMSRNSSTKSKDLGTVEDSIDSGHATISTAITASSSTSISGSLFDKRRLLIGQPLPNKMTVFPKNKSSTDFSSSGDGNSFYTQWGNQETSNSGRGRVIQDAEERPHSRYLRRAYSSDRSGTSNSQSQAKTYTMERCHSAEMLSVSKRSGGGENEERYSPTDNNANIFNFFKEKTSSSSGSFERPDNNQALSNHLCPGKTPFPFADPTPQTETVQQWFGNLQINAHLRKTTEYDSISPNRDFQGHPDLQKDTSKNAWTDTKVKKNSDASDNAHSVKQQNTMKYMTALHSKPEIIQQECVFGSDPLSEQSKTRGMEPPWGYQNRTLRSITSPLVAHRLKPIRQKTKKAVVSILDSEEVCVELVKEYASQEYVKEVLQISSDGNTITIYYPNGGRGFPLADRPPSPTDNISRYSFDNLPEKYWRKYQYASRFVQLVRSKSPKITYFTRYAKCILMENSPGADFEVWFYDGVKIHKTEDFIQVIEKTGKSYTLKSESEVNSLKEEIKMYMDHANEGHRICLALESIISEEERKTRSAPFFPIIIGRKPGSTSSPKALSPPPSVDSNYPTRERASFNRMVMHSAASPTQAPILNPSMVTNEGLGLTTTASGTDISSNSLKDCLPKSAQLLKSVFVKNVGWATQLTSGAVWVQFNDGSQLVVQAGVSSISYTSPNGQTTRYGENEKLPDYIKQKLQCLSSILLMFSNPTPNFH

On to “recombinant Vpr (from UniProt P12520 1-96) (natural protein)”, for which the in vitro kinase assay: trans-autophosphorylation of the SSTT motif (S698, S700, T704, T707) of GST-Plk4(1–836; ∆PB3) in the presence of Vpr•VprBP, but not Vpr(1–79)•VprBP; anti-p-SSTT immunoblot worked out at 1.8 fold.
